# T1: calreticulin (CRT) exposed on the cell membrane of drug-treated Hela and MDA-MB-231 cells (UniProt P27797 18-417, limits assumed)
# T1 construct: whole, on cells; Target is inferred from cells on which calreticulin exposure was induced by anticancer drugs; cells were fixed with 3% paraformaldehyde; also called calreticulin on the cell surface
# T1 sequence (looked up): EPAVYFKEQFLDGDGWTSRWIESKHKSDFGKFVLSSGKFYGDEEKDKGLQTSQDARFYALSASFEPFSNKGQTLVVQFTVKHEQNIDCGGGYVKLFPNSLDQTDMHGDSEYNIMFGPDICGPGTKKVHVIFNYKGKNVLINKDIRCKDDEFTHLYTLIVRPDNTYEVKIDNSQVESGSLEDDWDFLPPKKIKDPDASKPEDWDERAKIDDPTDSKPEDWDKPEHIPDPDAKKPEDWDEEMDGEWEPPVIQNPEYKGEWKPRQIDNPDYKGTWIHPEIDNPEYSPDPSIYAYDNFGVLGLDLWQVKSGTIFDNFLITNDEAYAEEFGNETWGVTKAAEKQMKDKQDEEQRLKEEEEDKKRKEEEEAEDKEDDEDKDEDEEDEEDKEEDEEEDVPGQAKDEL
# T2: calreticulin (CRT) exposed on the cell membrane of drug-treated CT26 and MC38 cells (UniProt P14211 18-416, limits assumed)
# T2 construct: whole, on cells; Target is inferred from cells on which calreticulin exposure was induced by anticancer drugs; cells were fixed with 3% paraformaldehyde; also called calreticulin on the cell surface
# T2 sequence (looked up): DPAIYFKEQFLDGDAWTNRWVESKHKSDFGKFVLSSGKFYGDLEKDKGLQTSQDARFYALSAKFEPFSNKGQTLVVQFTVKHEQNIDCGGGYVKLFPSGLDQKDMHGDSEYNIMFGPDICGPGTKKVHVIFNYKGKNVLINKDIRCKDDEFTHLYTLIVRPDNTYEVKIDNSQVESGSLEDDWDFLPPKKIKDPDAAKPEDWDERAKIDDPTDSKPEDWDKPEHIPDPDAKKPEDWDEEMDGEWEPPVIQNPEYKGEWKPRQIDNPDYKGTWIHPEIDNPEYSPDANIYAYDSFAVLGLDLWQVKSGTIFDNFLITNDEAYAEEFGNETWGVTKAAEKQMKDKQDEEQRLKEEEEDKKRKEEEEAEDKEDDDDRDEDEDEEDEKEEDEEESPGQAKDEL
# Columns and labels:
# [1] = biological target: T1, calreticulin (CRT) exposed on the cell …; assay: flow cytometry, mitoxantrone- or doxorubicin-treated Hela and MDA-MB-231 cells, 5 µg/mL, anti-His tag detection
# Excerpt: (§1) The present inventors allowed cancer cells to react with CRT-monobody-Rluc8, and then measured the binding degree in the number of cells in order to more accurately confirm the binding force of CRT-monobody-Rluc8, which was purified according to an embodiment of the present invention, to calreticulin. To this end, CT26, MC38, Hela, and MDA-MB-231 cells were first cultured, and then the expression of calreticulin on the cell surface was induced by the same method (gemcitabine, doxorubicin, and mitoxantrone) as in Example 5. […] Finally, in order to identify cells bound to CRT-monobody, fluorescence signals of the cells were identified using a flow cytometer (BD Bioscience).
# (§2) As a result, when the CT26 (colon cancer), MC38 (colon cancer), Hela (uterine cancer), and MDA-MB-231 (breast cancer) cells were not treated with an anticancer drug and when the cells were treated with gemcitabine, no exposure of calreticulin on the cell membrane was confirmed through fluorescence signals for each cell, and there was no signal change after CRT-monobody treatment of the present invention, so that it was confirmed that the CRT-monobody was not bound to the cells.
# [2] = biological target: T2, calreticulin (CRT) exposed on the cell …; assay: flow cytometry, mitoxantrone- or doxorubicin-treated CT26 and MC38 cells, 5 µg/mL, anti-His tag detection
# Excerpt: as §1, §2
# [3] = biological target: T2, calreticulin (CRT) exposed on the cell …; assay: confocal microscopy, mitoxantrone-treated CT26 cells, 10 µg/mL monobody, anti-His tag detection
# Procedure: In order to verify the binding force of the purified CRT-monobody to calreticulin, the present inventors observed the degree of binding with a confocal microscope after treating the cancer cells with CRT-monobody. Specifically, CT26 (colon cancer) cells, which are cancer cells, were seeded at 1×10⁵ cells per well in chamber slides (154534PAK, Thermo Fisher Scientific) and cultured overnight in a C02 incubator. Then, each of the cells was treated with mitoxantrone (25 μM), which is an anticancer drug, to induce calreticulin on the surface thereof, treated with gemcitabine (15 μM) as a control group, and cultured for 4 hours, washed with PBS, and reacted with 3% paraformaldehyde for 10 minutes to fix the cells. Then, a block buffer (3% BSA in PBS) was treated for 1 hour to prevent the hard-to-bind antibody, and the CRT-monobody (10 μg/mL) of the present invention was treated in each well and reacted for 1 hour to induce binding to calreticulin. […] In addition, Alexa 555 conjugated WGA-555 (1:2000, 3% BSA in PBS) was treated in order to distinguish cell membranes, DAPI-Glod-antifade was treated, and mounting was performed, and the prepared slides were refrigerated under dark conditions.
# [4] = biological target: T1, calreticulin (CRT) exposed on the cell …; assay: confocal microscopy, mitoxantrone- or doxorubicin-treated Hela and MDA-MB-231 cells, 10 µg/mL, anti-His tag detection
# Procedure: In order to verify the binding force of the CRT-monobody-Rluc8 protein to calreticulin, the present inventors observed the degree of binding with a confocal microscope after purifying CRT3-R, CRT4-R, and DGR-R as in Example 3 and treating cancer cells with the CRT-monobody-Rluc8 proteins. Specifically, cancer cells such as CT26 (colon cancer), MC38 (colon cancer), Hela (uterine cancer), and MDA-MB-231 (breast cancer) were seeded at 1×10⁵ cells per well in chamber slides (154534PAK, Thermo Fisher Scientific) and cultured overnight in a CO₂ incubator. Then, each of the cells was treated with doxorubicin (25 μM) and mitoxantrone (25 μM), which are anticancer drugs, to induce calreticulin on the surface thereof, treated with gemcitabine (15 μM) as a control group, and cultured for 4 hours, washed with PBS, and reacted with 3% paraformaldehyde for 10 minutes to fix the cells. Then, a block buffer (3% BSA in PBS) was treated for 1 hour to prevent the hard-to-bind antibody, and the CRT-monobody (10 μg/mL) was treated in each well and reacted for 1 hour to induce binding to calreticulin. […] In addition, Alexa 555 conjugated WGA-555 (1:2000, 3% BSA in PBS) was treated in order to distinguish cell membranes, DAPI-Glod-antifade was treated, and mounting was performed, and the prepared slides were refrigerated under dark conditions.
Binder,binding result [3],other results
"CRT3-R (recombinant CRT-monobody-Rluc8 of CRT3) (designed binder, not shown: large carriers; small tags and cut ends, detected with anti-His tag antibody) MASVSDVPRDLEVVAATPTSLLISWKLGFFKRYYRITYGETGGNSPVQEFTVPGSKSTATISGLKPGVDYTITVYAVTGQPMYGQPMYPISINYRT",–,binding result [1]: binds; binding result [2]: binds
"CRT1 recombinant CRT-monobody (designed binder, His-tagged protein expressed in E. coli BL21(DE3) from pETh plasmid, purified on Ni-NTA; FG loop: Hep 1; BC and DE loops unchanged) MASVSDVPRDLEVVAATPTSLLISWDAPAVTVRYYRITYGETGGNSPVQEFTVPGSKSTATISGLKPGVDYTITVYAVTGQPMYGQPMYPISINYRTGSHHHHHH",binds,–
"CRT2 recombinant CRT-monobody (designed binder, His-tagged protein from E. coli, purified on Ni-NTA; FG loop: Int alpha; BC and DE loops unchanged) MASVSDVPRDLEVVAATPTSLLISWDAPAVTVRYYRITYGETGGNSPVQEFTVPGSKSTATISGLKPGVDYTITVYAVTKLGFFKRPISINYRTGSHHHHHH",binds,–
"CRT3 recombinant CRT-monobody (designed binder, His-tagged protein from E. coli, purified on Ni-NTA) MASVSDVPRDLEVVAATPTSLLISWKLGFFKRYYRITYGETGGNSPVQEFTVPGSKSTATISGLKPGVDYTITVYAVTGQPMYGQPMYPISINYRTGSHHHHHH",binds,–
"CRT6 recombinant CRT-monobody (designed binder, His-tagged protein from E. coli, purified on Ni-NTA; BC loop: Int alpha; DE and FG loops marked '-') MASVSDVPRDLEVVAATPTSLLISWKLGFFKRYYRITYGETGGNSPVQEFTVPGSKSTATISGLKPGVDYTITVYAVTGRGDSPASSKPISINYRTGSHHHHHH",binds,–
"CRT5 recombinant CRT-monobody (designed binder, His-tagged protein from E. coli, purified on Ni-NTA; BC loop: Hep 1; DE and FG loops marked '-') MASVSDVPRDLEVVAATPTSLLISWGQPMYGQPMYYYRITYGETGGNSPVQEFTVPGSKSTATISGLKPGVDYTITVYAVTGRGDSPASSKPISINYRTGSHHHHHH",binds,–
"CRT4-R (recombinant CRT-monobody-Rluc8 of CRT4) (designed binder, not shown: large carriers; small tags and cut ends, detected with anti-His tag antibody) MASVSDVPRDLEVVAATPTSLLISWGQPMYGQPMYYYRITYGETGGNSPVQEFTVPGSKSTATISGLKPGVDYTITVYAVTKLGFFKRPISINYRT",–,binding result [4]: binds; binding result [2]: binds
"CRT4 recombinant CRT-monobody (designed binder, His-tagged protein from E. coli, purified on Ni-NTA) MASVSDVPRDLEVVAATPTSLLISWGQPMYGQPMYYYRITYGETGGNSPVQEFTVPGSKSTATISGLKPGVDYTITVYAVTKLGFFKRPISINYRTGSHHHHHH",binds,–
